Experimental findings from PMC8723827 (2022) are described below.

In this experiment the target is His-tagged SARS-CoV-2 RBD (early pandemic, Wuhan) (SARS-CoV-2, UniProt P0DTC2). Briefly: SPR. In general terms: In SPR one partner is held on a chip, and binding of the other changes the refractive index at the surface.

B1: EY6A mAb (IgG) (antibody, V domains shown)
VH: EVQLVESGGGVVQPGRSLRLSCAASAFTFSSYDMHWVRQAPGKGLEWVAVISYDGSNKYYADSVKGRFTISRDNSKNTLYLQMNSLRAEDTAVYYCAKDGGKLWVYYFDYWGQGTLVTVSS
VL: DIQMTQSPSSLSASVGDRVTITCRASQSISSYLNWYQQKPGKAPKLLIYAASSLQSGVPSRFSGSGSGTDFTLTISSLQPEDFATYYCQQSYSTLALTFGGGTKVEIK
What is called koff is a measure of how fast the partners let go of each other. A high value points to fast dissociation. The molecule B1 showed an off-rate constant (koff) of 0.0048 s⁻¹.

B2: Beta-55 mAb (IgG) (antibody, V domains shown)
VH: QVQLQESGPGLVKPSETLSLTCTVSGDSISSSRYYWGWIRQPPGKGLEWIGTFYYSGITYYNPSLKSRVTIFVDTSKNQFSLKLSSVTAADTAVYYCARPRPPDYYDNSGALLFDIWGQGTMVTVSS
VL: AIRMTQSPSTLSASVGDRVTIACRASQSISAWLAWYQQKPGKAPKLLIYKASSLESGVPSRFSGSGSGTEFTLTINSLQPDDFATYYCQQYISSSPWTFGQGTKVEIK
Molecule B2 had a dissociation rate constant (koff) of 0.00018 s⁻¹.
